Km data for one substance are collected here from PMC4772129, “nagZ Triggers Gonococcal Biofilm Disassembly” (Scientific Reports, 2016).

In this data set the test system is CC(=O)N[C@H]1[C@H](Oc2ccc([N+](=O)[O-])cc2)O[C@H](CO)[C@@H](O)[C@@H]1O. In words: purified protein. To be noted: KPO4 buffer 200 mM, pH 8.0, 37 °C (standard assay).

In the case of NagZ (Neisseria gonorrhoeae FA 1090), the Km worked out at 3.2 mM.
